Measurements published in patent US20090137002A1 (published 2009).

T1: recombinant mouse EphB6 (mouse, UniProt O08644 33-591, limits assumed)
T1 construct: also called mEphB6
T1 sequence (looked up): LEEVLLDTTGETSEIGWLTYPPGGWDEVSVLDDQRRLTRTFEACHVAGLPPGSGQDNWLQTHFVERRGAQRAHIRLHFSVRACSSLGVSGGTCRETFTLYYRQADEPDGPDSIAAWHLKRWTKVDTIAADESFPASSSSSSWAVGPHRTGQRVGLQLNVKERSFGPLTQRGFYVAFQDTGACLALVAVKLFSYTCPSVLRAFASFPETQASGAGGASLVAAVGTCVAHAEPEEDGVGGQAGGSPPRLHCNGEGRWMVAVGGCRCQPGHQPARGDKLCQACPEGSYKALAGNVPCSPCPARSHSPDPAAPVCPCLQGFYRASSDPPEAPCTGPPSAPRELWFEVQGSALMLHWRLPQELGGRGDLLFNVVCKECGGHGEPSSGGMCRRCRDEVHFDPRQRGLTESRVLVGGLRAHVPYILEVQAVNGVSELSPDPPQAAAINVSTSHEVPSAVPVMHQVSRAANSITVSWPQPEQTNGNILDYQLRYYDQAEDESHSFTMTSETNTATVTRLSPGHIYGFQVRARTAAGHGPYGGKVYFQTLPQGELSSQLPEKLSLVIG

T2: recombinant mouse EphB3-Fc fusion protein (mouse, UniProt P54754 30-537, limits assumed)
T2 construct: also called mEphB3; not shown: Fc part, not described
T2 sequence (looked up): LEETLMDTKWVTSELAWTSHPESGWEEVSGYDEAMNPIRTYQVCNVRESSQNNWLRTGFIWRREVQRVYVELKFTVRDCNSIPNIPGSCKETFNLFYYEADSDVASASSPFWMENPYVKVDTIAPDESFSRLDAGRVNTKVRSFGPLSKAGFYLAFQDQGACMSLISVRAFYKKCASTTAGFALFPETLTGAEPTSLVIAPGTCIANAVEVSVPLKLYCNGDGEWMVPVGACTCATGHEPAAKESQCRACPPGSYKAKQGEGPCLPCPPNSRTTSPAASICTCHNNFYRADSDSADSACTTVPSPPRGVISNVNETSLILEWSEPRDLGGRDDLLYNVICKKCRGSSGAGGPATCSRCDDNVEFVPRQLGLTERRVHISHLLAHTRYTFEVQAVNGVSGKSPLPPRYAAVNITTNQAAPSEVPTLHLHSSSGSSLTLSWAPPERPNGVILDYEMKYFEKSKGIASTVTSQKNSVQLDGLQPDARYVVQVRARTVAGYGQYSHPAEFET

T3: recombinant human EphB4-Fc fusion protein (human, UniProt P54760 16-539)
T3 construct: extracellular domain; also called hEphB4; hu EphB4-Fc
T3 sequence (looked up): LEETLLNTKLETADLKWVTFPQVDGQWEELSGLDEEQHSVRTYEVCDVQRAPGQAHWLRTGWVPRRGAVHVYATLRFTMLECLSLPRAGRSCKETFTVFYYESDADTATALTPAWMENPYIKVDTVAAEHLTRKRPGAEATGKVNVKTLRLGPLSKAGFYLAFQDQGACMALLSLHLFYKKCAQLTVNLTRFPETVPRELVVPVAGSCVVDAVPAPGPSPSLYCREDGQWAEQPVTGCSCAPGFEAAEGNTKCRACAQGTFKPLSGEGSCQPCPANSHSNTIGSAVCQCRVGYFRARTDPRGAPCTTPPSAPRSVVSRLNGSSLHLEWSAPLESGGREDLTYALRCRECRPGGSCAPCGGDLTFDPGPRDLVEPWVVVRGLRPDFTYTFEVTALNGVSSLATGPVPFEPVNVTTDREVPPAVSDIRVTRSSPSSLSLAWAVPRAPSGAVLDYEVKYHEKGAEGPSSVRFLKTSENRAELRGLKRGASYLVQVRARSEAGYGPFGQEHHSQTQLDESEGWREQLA

T4: recombinant murine EphB4-Fc fusion protein (mouse, UniProt P54761 16-539)
T4 construct: extracellular domain; also called mEphB4; mu EphB4; not shown: Fc part, not described
T4 sequence (looked up): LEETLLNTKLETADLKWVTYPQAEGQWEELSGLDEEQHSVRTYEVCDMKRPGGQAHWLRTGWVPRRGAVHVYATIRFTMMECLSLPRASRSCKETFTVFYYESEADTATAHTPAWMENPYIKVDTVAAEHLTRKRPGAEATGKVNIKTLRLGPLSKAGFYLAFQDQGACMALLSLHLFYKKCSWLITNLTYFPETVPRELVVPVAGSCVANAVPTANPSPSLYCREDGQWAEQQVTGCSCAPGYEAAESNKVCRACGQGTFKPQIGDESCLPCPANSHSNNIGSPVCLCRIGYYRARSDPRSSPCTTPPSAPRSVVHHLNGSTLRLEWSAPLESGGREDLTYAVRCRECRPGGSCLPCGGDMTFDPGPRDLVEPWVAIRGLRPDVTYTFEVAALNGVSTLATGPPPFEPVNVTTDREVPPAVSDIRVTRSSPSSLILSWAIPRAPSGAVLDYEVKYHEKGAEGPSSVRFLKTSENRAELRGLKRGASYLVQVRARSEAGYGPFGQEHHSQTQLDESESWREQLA

B1: MOR03641 Fab (Fab, V domains shown)
VH: QVQLVQSGAEVKKPGSSVKVSCKASGGTFSTYAISWVRQAPGQGLEWMGRIIPIFGTANYAQKFQGRVTITADESTSTAYMELSSLRSEDTAVYYCARSSYTILTTYYNYNAMDNWGQGTLVTVSS
VL: DIQMTQSPSSLSASVGDRVTITCRASQNINNFLNWYQQKPGKAPKLLIYGSSILQSGVPSRFSGSGSGTDFTLTISSLQPEDFAVYYCHQVSDTSDTFGQGTKVEIKR
notes: Monomeric HuCAL Fab (VH1A, kappa1), purified, MH-tagged; also called 3541 [sic]
B2: MOR03639 Fab (Fab, V domains shown)
VH: QVQLVESGGGLVQPGGSLRLSCAASGFTFSNYYLHWVRQAPGKGLEWVSGISYSGSSTYYADSVKGRFTISRDNSKNTLYLQMNSLRAEDTAVYYCARFYQRRQIPHGYDVWGQGTLVTVSS
VL: DIELTQPPSVSVAPGQTARISCSGDNIGDYYVHWYQQKPGQAPVLVIYRDSNRPSGIPERFSGSNSGNTATLTISGTQAEDEADYYCGSYDMPFGGTVFGGGTKLTVLG
notes: Monomeric HuCAL Fab (VH3, lambda3), purified, MH-tagged
B3: MOR03640 Fab (Fab, V domains shown)
VH: QVQLVESGGGLVQPGGSLRLSCAASGFTFNNSWMSWVRQAPGKGLEWVSNITSSSSMTHYADSVKGRFTISRDNSKNTLYLQMNSLRAEDTAVYYCARKGMSFYNNKYAKSMFDLWGQGTLVTVSS
VL: DIELTQPPSVSVAPGQTARISCSGDNLGKKYVHWYQQKPGQAPVLVIYYDSKRPSGIPERFSGSNSGNTATLTISGTQAEDEADYYCSAWTTTMMHIVFGGGTKLTVLG
notes: Monomeric HuCAL Fab, purified, MH-tagged

Assays:
[1] = target: T1, recombinant mouse EphB6; experiment: ELISA on coated receptor
Method: (§1) A 96-well plate was coated with recombinant mEphB1, -2, -3, -4, -6, mEphA4 and hEphB4 in PBS o/n at 4° C. (5 μg/mL; 100 μL/well). The next day, the antigen was discarded and the plate blocked with 3% BSA/PBS (300 μl/well) for 2 hrs at room temperature (RT). Blocking solution was discarded and anti-EphB4 Fabs were added to the wells at a concentration of 20 μg/mL in 1% BSA/PBS and incubated for 1 hr at RT. Fabs were discarded and the plate was washed 3× with PBS. Anti-human F(ab′)₂—HRP was added at a concentration recommended by the manufacturer in 1% BSA/PBS and incubated for 1 hr at RT. The plate was washed 3× with PBS and 100 μL/well chemifluorescent substrate was added. After development, fluorescence was measured in a fluorescence reader.

[2] = target: T2, recombinant mouse EphB3-Fc fusion …; experiment: ELISA on coated receptor
Method: as §1

[3] = target: T3, recombinant human EphB4-Fc fusion …; experiment: Biacore, EphB4-Fc on chip
Method: (§2) The affinity of the antibody fragments was determined using BIACORE™ analysis and cell ELISA. The Biacore chip was coated with recombinant human or murine EphB4-Fc fusion protein.

[4] = target: T4, recombinant murine EphB4-Fc fusion …; experiment: Biacore, EphB4-Fc on chip
Method: as §2

binding result [1] | binding result [2] | Kd [3] [nM] | Kd [4] [nM] | Binder
no binding (tested: 20 µg/mL) | no binding (tested: 20 µg/mL) | 35 | 151 | B1
no binding (tested: 20 µg/mL) | no binding (tested: 20 µg/mL) | 13 | 43 | B2
no binding (tested: 20 µg/mL) | no binding (tested: 20 µg/mL) | 1.8 | 4 | B3
